According to patent US20230356187A1:

How the values were obtained:
[1] = molecular target: purified antibody (KBIO, Korea); test: 1 ml resin column; purified antibody bound, eluted and measured after 15 cycles of 0.3 M NaOH (15 min each)
[2] = molecular target: purified antibody (KBIO, Korea); test: 1 ml resin column; purified antibody bound, eluted and measured after 15 cycles of 0.3 M NaOH; reference Capto L

B1: variant protein 4mBF (mBF tetramer) (designed binder)
chain: MPKEEVTIKANLIFADGKTQTAEFKGTFGEATAEAYRYADLLAPENGKYTVDVADKGYTLNIKFAGKEKTPEEMPKEEVTIKANLIFADGKTQTAEFKGTFGEATAEAYRYADLLAPENGKYTVDVADKGYTLNIKFAGKEKTPEEMPKEEVTIKANLIFADGKTQTAEFKGTFGEATAEAYRYADLLAPENGKYTVDVADKGYTLNIKFAGKEKTPEEMPKEEVTIKANLIFADGKTQTAEFKGTFGEATAEAYRYADLLAPENGKYTVDVADKGYTLNIKFAGKEKTPEE
In the case of B1, the residual activity (antibody recovered after 15 alkali treatments, relative to the initial binding) [1] is reported as 43.5% and the residual activity relative to Cytiva's product (Capto L) [2] is reported as 1.4 times.
